Values quoted from earlier work in patent US12251426B2 (priority 2020, dated 2025).

B1: Bovine lactoferrin: water-soluble protein obtainable through bovine milk (protein, UniProt P24627 20-708, looked up)
Lactotransferrin: APRKNVRWCTISQPEWFKCRRWQWRMKKLGAPSITCVRRAFALECIRAIAEKKADAVTLDGGMVFEAGRDPYKLRPVAAEIYGTKESPQTHYYAVAVVKKGSNFQLDQLQGRKSCHTGLGRSAGWIIPMGILRPYLSWTESLEPLQGAVAKFFSASCVPCIDRQAYPNLCQLCKGEGENQCACSSREPYFGYSGAFKCLQDGAGDVAFVKETTVFENLPEKADRDQYELLCLNNSRAPVDAFKECHLAQVPSHAVVARSVDGKEDLIWKLLSKAQEKFGKNKSRSFQLFGSPPGQRDLLFKDSALGFLRIPSKVDSALYLGSRYLTTLKNLRETAEEVKARYTRVVWCAVGPEEQKKCQQWSQQSGQNVTCATASTTDDCIVLVLKGEADALNLDGGYIYTAGKCGLVPVLAENRKSSKHSSLDCVLRPTEGYLAVAVVKKANEGLTWNSLKDKKSCHTAVDRTAGWNIPMGLIVNQTGSCAFDEFFSQSCAPGADPKSRLCALCAGDDQGLDKCVPNSKEKYYGYTGAFRCLAEDVGDVAFVKNDTVWENTNGESTADWAKNLNREDFRLLCLDGTRKPVTEAQSCHLAVAPNHAVVSRSDRAAHVKQVLLHQQALFGKNGKNCPDKFCLFKSETKNLLFNDNTECLAKLGGRPTYEEYLGTEYVTAIANLKKCSTSPLLEACAFLTR
In the case of B1, the water solubility is listed as “water-soluble”.
